The labels stand for the following.
B1: CPEB3 Ribozyme (parent)
chain: UAACAGGGGGCCACAGCAGAAGCGUUCACGUCGCAGCCCCUGUCAGAUUCUGGUGAAUCUGCGAAUUCUGCUGUAUAUCUC

In this series the parent is B1. The experiment in a line: self-cleavage, relative activity (ratio to wild type); higher = more cleavage; in vitro, sequencing. In short, it runs like this: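 After error-prone PCR and barcoding, CPEB3 ribozyme mutant libraries were transcribed with T7 RNA polymerase at 37°C for 5 hours, then given 15 min with DNase I before an EDTA stop, and they cleaved during both steps. Reverse transcription with template switching preceded Illumina sequencing. Relative activity divides a variant's cleaved/total read fraction by the unmutated ribozyme's. At least 5 reads were required per variant, and three batches were averaged.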
Consider UAACAGGGGGCCACAGCAGAAGCGUUCACGUCGCAGCCCCUGUCGGAUUCUGGUGAAUCUGCGAAUUCCGCUGUAUAUCUC, for which the self-cleavage came out at 0.38.
For the variant UAACAGGGGGCUACAGCAGAAGCGUUCACGUCGCAGCCCCUGUCAGAUUCUGGUGAAUCUGCGAAUUCUGCAGUAUAUCUC, the self-cleavage came out at 1.1.
As for UAACAGGGGGCCACAGCAGAAGCGUUCACGUCGCAGCUCCUGUCAGAUUCUGGUGAAUCUGCGAAUUCGGCUGUAUAUCUC, the figure is 0.42; as for UAACAGGGGGCCACAGCAGAAGCGUUCACGUCGCAGCCCCUGUCAGAUACUAGUGAAUCUGCGAAUUCUGCUGUAUAUCUC, 0.84.
As to UAACAGGGGGCCACAGCAGAAGCGUUCACGUCGCAGCCCCUGUCAGAUUCUGGUGAAUCUGCGAAUCCUGCGGUAUAUCUC, the self-cleavage was found to be 0.22.
With UAACAGGGGGCAACAGCAGAAGCGUUCACGUCGCAGCCCCUGUCAGAUUCUGGUGAAUCUGCGAAUUCCGCUGUAUAUCUC, the self-cleavage was 0.72.
The result for UAACAGGGGACCACAGCAGAAGCGUUCACGUCGCAGCCCCUGUCAGAUUCUGGUGAAUCUGCGAAUUCUGCUGUAAAUCUC reads 0.23; that for UUACAGGGGGCCACAGCAGAAGCGUUCACGUCGCAGCCCCUGUCAGAUUCUGGUGGAUCUGCGAAUUCUGCUGUAUAUCUC, 0.88.
The result for UAACAGGGGGCCACAGCAGAAGCAUUCACGUCGCAGCCCCUGUCAAAUUCUGGUGAAUCUGCGAAUUCUGCUGUAUAUCUC reads 0.2; that for UAACAGGGGGCCACAGCAGAAGCGUUCACGUCGCAGCCCCUGUCCGAUUCUGGUGAAUCUGCGAAUUCUGCUGUAAAUCUC, 0.5; that for UAGCAGGGGGCCACAGCAGGAGCGUUCACGUCGCAGCCCCUGUCAGAUUCUGGUGAAUCUGCGAAUUCUGCUGUAUAUCUC, 0.86.
Turning to UAACAGGGGGCCACAGCAGAAGCGUUCACGUCGCAGCCCCUGUCAGAUUCUGGUGAAUCUGCGAGUUCUGCUGUAUAUCCC, the self-cleavage was 0.59.
In the case of UAACAGGGGGCCACAGCAGAGGCGUUCACGUCCCAGCCCCUGUCAGAUUCUGGUGAAUCUGCGAAUUCUGCUGUAUAUCUC, the self-cleavage is 0.14.
As for UAACAGGGGGCCACAGCAGAAGCGUUCACGUCGCAGCCCCUGUCAGAUUCUGGUGGAUCUGCGAUUUCUGCUGUAUAUCUC, the figure is 0.25.
In the case of UAACAGGGGGCCACAGCAGAAGCGUUCACGUCGCAGCCCCUGUCUGAUUCUGUUGAAUCUGCGAAUUCUGCUGUAUAUCUC, the self-cleavage is 0.58.
As for UAACAGGGGGCCACAGCAGUAGCGUUCACGUCGCAGCCCCUGUCAGAUUCUGGAGAAUCUGCGAAUUCUGCUGUAUAUCUC, the figure is 0.29.
Turning to UAACAGGGGGCCACAGCGGAAGCGUUCUCGUCGCAGCCCCUGUCAGAUUCUGGUGAAUCUGCGAAUUCUGCUGUAUAUCUC, the self-cleavage was 0.5.
The result for UAACAGGGGGGCACAGCAGAAGCGUUCACGUUGCAGCCCCUGUCAGAUUCUGGUGAAUCUGCGAAUUCUGCUGUAUAUCUC reads 0.16; that for UAACAGGGGGCCACAGCAGAAGCGUUCACGUCGCAGCCCCGGUCAGGUUCUGGUGAAUCUGCGAAUUCUGCUGUAUAUCUC, 0.37.
As for UAACAGGGGGCCACAGCAGAAGAGUUCACGUCGCAGCCCCUGUCAGUUUCUGGUGAAUCUGCGAAUUCUGCUGUAUAUCUC, the figure is 0.47; as for UAACAGGGGGCCACAGCAGAAGCGUUCACGUCGCAGGCCCUGUCAGAUUCGGGUGAAUCUGCGAAUUCUGCUGUAUAUCUC, 0.78.
The result for UGACAGGGGGCCACAGCAGAAGCGUUCACGUCGGAGCCCCUGUCAGAUUCUGGUGAAUCUGCGAAUUCUGCUGUAUAUCUC reads 0.1; that for UAACAGGGGGCCACAGCGGAAGCGUUCACGUCGCAGCUCCUGUCAGAUUCUGGUGAAUCUGCGAAUUCUGCUGUAUAUCUC, 0.73; that for UAACAGGGGGCCACAGCAGAAGCGUUCACGUCGCAGCCCCUGUAAGAUUCUGGUGAAUCUGCGAGUUCUGCUGUAUAUCUC, 0.2.
As to UAACAGGGGGCCACAGCAGAAGCGUUCACGUCGCAGCUCCUGUCAGAUUCUGGUGAAUCUGCGAAUUCUGCAGUAUAUCUC, the self-cleavage amounted to 0.37.
As for UAACAGGGGGCCACAGCAGAAGCGUUCACGUCGCAGCCCCUGUCAGAUUCUGGUGAAUCUGUGAAUUCUGCGGUAUAUCUC, the figure is 0.29; as for UAACAGGGGGCCACAGCAGAAGCGUUCACGUCGCAGCCCCUGUCAGAUUCUGGCGAAUCUGCGAAUUCUGCUGUAUAUAUC, 1.18.
The result for UAACAUGGGGCCACAGCAGAAGCGUUCACGUCGCAGCCCCUGUCAGAUUCUGGUGUAUCUGCGAAUUCUGCUGUAUAUCUC reads 0.22.
Regarding UAAGAGGGGGCCACAGCAGAGGCGUUCACGUCGCAGCCCCUGUCAGAUUCUGGUGAAUCUGCGAAUUCUGCUGUAUAUCUC, the self-cleavage came to 1.14.
The result for UAACAGGGGGCCACAGCAGAAGCGUUCACGUCGCAGCCCCUGUCAGAUUCUGGUGAAUCUGCGAAUUCUGCUGUAUGCCUC reads 0.82; that for UAACAGGGGGCCACAGCAGAAGCGUUCACGUCGCAGCCCCUGUCAGAUUCUGGUGAAUCUGCGAAUUCUGCUGUAUGACUC, 1.17; that for UAACAGGGGGCCACAGGAGAAGCGUUCACGUCGCAGCCCCUGUCAGAUUCUGCUGAAUCUGCGAAUUCUGCUGUAUAUCUC, 0.45.
As to UAACAGGGGGCCACAGCAGAAGCGUUCACGUCGCAGCCCCUGUCAGAUUCUGGUGAAUCUGCGAAUACUCCUGUAUAUCUC, the self-cleavage turned out to be 0.23.
The result for UAACAGGGGGCCGCAGCAGAAGCGAUCACGUCGCAGCCCCUGUCAGAUUCUGGUGAAUCUGCGAAUUCUGCUGUAUAUCUC reads 0.29; that for UAACAGGGGGCCACAGCAGAAGCGCUCACGUCGCAGCCCCUGUCAGAUUCUGGUGAAUCUGCAAAUUCUGCUGUAUAUCUC, 0.37; that for UAACAGGGGGCCUCAGCAGAAGCGUUCACGACGCAGCCCCUGUCAGAUUCUGGUGAAUCUGCGAAUUCUGCUGUAUAUCUC, 0.61.
The result for UAACAGGGGGCCACAGCUGAAGCGUUCACGUCGCAGCCCCUGUCAGAUUCUGGUGAAUCUGCGAAUUCAGCUGUAUAUCUC reads 1.19; that for UAACAGGGGGGCACAGCAGAAGCGUUCACGUCGCAGCCCCUGUCAGAUUCUGGUGAAUCUGCGAAUUCUGCUGUUUAUCUC, 0.78.
As for UAACAGGGGGCCACAGUAGAAGCGAUCACGUCGCAGCCCCUGUCAGAUUCUGGUGAAUCUGCGAAUUCUGCUGUAUAUCUC, the figure is 0.27; as for UAACAGGGGGCCACAGCAGAAGUGAUCACGUCGCAGCCCCUGUCAGAUUCUGGUGAAUCUGCGAAUUCUGCUGUAUAUCUC, 0.14.
Consider UAACAGGAGGCCACAGCGGAAGCGUUCACGUCGCAGCCCCUGUCAGAUUCUGGUGAAUCUGCGAAUUCUGCUGUAUAUCUC, for which the self-cleavage is 0.21.
As for UAACAGGGGGCCACAGCAGAAGCGUUCACAUCGCAGCCCCUGUCAGUUUCUGGUGAAUCUGCGAAUUCUGCUGUAUAUCUC, the figure is 0.18; as for UAACAGGGGGCCACAGCAUAAGCGUUCACGUGGCAGCCCCUGUCAGAUUCUGGUGAAUCUGCGAAUUCUGCUGUAUAUCUC, 0.19.
Turning to UAACAGGGGGCCUCAGCAGAAGCGUUCACUUCGCAGCCCCUGUCAGAUUCUGGUGAAUCUGCGAAUUCUGCUGUAUAUCUC, the self-cleavage worked out at 0.11.
The result for UAACAGGGGGCCACAGCAGAAGCGCUCACGUCGCAGCCCCUGUCAGAUUCUGGUGAAUCUGCGUAUUCUGCUGUAUAUCUC reads 0.26; that for UAACAGGGGGCCUCAGCAGAAGCGUUCACGUCGCAGCCCCUGUCAGAUUCUGGUGAAUCUACGAAUUCUGCUGUAUAUCUC, 0.91.
As for UAACAGGGGGCCUCAGCAGAAGCGUUCACGUCGCAGCCCCUGUCAGAUUCAGGUGAAUCUGCGAAUUCUGCUGUAUAUCUC, the figure is 1.21; as for UAACAGGGGGCCACAGCAGAAGCGUUCACGUCGCAGCCCCUGUCAGAUUCUGGUGAAUCUGUGAUUUCUGCUGUAUAUCUC, 0.14.
As for UAACAGGGGGCCACAGCAGAAGCGUUCACGUCGCAGCCCCUGUCAGACUCUGGUGAAUCUGCGAAUUGUGCUGUAUAUCUC, the figure is 0.18.
For the variant UAACAGGGGGCCGCAGCAGGAGCGUUCACGUCGCAGCCCCUGUCAGAUUCUGGUGAAUCUGCGAAUUCUGCUGUAUAUCUC, the self-cleavage was 0.6.
For the variant UAACAGGGGGCCACAGCAGAAGCGUUCACAUCGCAGCCCCUGCCAGAUUCUGGUGAAUCUGCGAAUUCUGCUGUAUAUCUC, the self-cleavage came to 0.24.
The result for UAACAGGGGGCCACAGCAGAAGCCUUCACGUCGCAGCCCCUGUCAGAUUCUGGUGAAUCUGCGAAUUCCGCUGUAUAUCUC reads 0.17.
As for UAACAGGGGCCCACAGCAGAAGCGUUCGCGUCGCAGCCCCUGUCAGAUUCUGGUGAAUCUGCGAAUUCUGCUGUAUAUCUC, the figure is 0.14.
As for UAACAGGGGGCCACUGCAGAAGCGUUCACGUCGCAGCCCCUGUCGGAUUCUGGUGAAUCUGCGAAUUCUGCUGUAUAUCUC, the figure is 0.49.
For UAACAGGGGGCCACAGCAGAACCGUUCACGACGCAGCCCCUGUCAGAUUCUGGUGAAUCUGCGAAUUCUGCUGUAUAUCUC, the self-cleavage came out at 0.12.
As for UAACAGGGGGCCACAGCAGAAGCGUUCACGUCGCAGCCCCUGUCAGAUUCUGGUGAAUCUGCGAAUGUUGCUGUAUAUCUC, the figure is 0.44.
As for UAACAGGGGGCCACAGCAGAAGCGUUCACGUCGCAGCCCCUGUCACAUACUGGUGAAUCUGCGAAUUCUGCUGUAUAUCUC, the figure is 0.04.
The result for UAACAGGGGGCCACAGGAGAAGCGUUCACGUCGCAGCCCCUGUCAGAUUCUGGUGAAUCUGCGUAUUCUGCUGUAUAUCUC reads 0.17.
In the case of UAACAGGGGGCCACAGCAGAAGCGUUCACGUCGCAGCCCCUGUCAGACUCUGGUGAAUCUGCGAAUUCUGCUGCAUAUCUC, the self-cleavage was 1.02.
As for UAACGGGGGGCCACAGCAGAAGCGUUCACGUCGCAGCCCCUGUCAGAUUCUGGUGAAUCUGCGAAGUCUGCUGUAUAUCUC, the figure is 0.44.
The result for UAACAGGGGGACACAGCAGAAGCGUUCACGUCGCAGCCCCUGUCAGAUUCUGGCGAAUCUGCGAAUUCUGCUGUAUAUCUC reads 0.17.
The result for UAACAGGGGGCCACAGCAGAAGCGUUCUCGUCGCACCCCCUGUCAGAUUCUGGUGAAUCUGCGAAUUCUGCUGUAUAUCUC reads 0.37; that for UAACAGGGGGCCUCAGCAGAAGCGUACACGUCGCAGCCCCUGUCAGAUUCUGGUGAAUCUGCGAAUUCUGCUGUAUAUCUC, 1.08; that for UAAUAGGGGUCCACAGCAGAAGCGUUCACGUCGCAGCCCCUGUCAGAUUCUGGUGAAUCUGCGAAUUCUGCUGUAUAUCUC, 0.25.
Consider CAACAGGGGGCCACAGCAGAAGCGUUCACGUCGCAGCCCCUGUCAGAUUCUGGUGAAUCUGCGAAUUCUGCAGUAUAUCUC, for which the self-cleavage was 0.66.
As for UAACAGGGGGCGACAGCAGAAGCGUUCACGUCGCAGCCCCUGUCAGAUUCUGGCGAAUCUGCGAAUUCUGCUGUAUAUCUC, the figure is 0.51.
As to UAACAGGGGGCCACAGCAGAAGCGUUCACGUCGCAGCCACUGACAGAUUCUGGUGAAUCUGCGAAUUCUGCUGUAUAUCUC, the self-cleavage worked out at 0.38.
As for UACCAGUGGGCCACAGCAGAAGCGUUCACGUCGCAGCCCCUGUCAGAUUCUGGUGAAUCUGCGAAUUCUGCUGUAUAUCUC, the figure is 0.39.

The values above are taken from the RNAGym collection of RNA variant scans (doi:10.1093/nar/gkz1192).
